Laboratory results as given in the supplement of paper PMC12764529.
± gives the half width of the 95% confidence interval.

Assays:
[1] = folding stability dG unfold from chymotrypsin proteolysis; higher = more stable
In short: (§1)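 How resistant each design was to proteolysis was captured as K50, inferred by Bayesian fitting of sequencing counts. Unfolding free energy was then derived relative to a sequence-predicted unfolded-state K50 and a shared folded-state K50, per protease or combined. Digestion used trypsin and chymotrypsin at 11 threefold-diluted concentrations plus a no-protease condition, on mini-proteins under 80 residues without cysteine in a PA-tagged cDNA display construct. Designs were kept only when AlphaFold2 dimer inter-PAE was above 15.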

[2] = folding stability dG unfold (combined trypsin and chymotrypsin); higher = more stable
In short: as §1

[3] = folding stability dG unfold from trypsin proteolysis; higher = more stable
Description: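 Folding stability of de novo designed mini-proteins (<80 aa, no Cys; designed by TrROS, TrMRF, ProteinMPNN and the joint model) was measured by cDNA display proteolysis with trypsin and chymotrypsin. Each protease was used at 11 concentrations in a threefold dilution series plus a no-protease condition. K50 was inferred by Bayesian fitting of sequencing counts, and dG unfold was derived against a sequence-predicted unfolded-state K50 (Tsuboyama et al. method). Sequences shown include variable-length N-terminal GS-type padding (SAGGSAGG...) inside a display construct carrying a PA tag. Rows were kept only if the AF2 dimer inter-PAE was >15, to exclude likely homo-oligomers.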

Row | Sequence | folding stability dG unfold [1] [kcal/mol] | folding stability dG unfold [2] [kcal/mol] | folding stability dG unfold [3] [kcal/mol]
1 | AATTATVTLPFAPDDLDAAVEAARELASTLPPDSRITVAVPAPDGSTGTVTATVHPDGTIDVTVSPAAAPAS [r1_350_TrMRF] | 1.47 ± 0.04 | 1.19 ± 0.1 | 0.731 ± 0.019
2 | AELEAEVVSVEEVNGETVVVVRVDGELVVRTFRPPPPRPLSLEELKRLAEELREQNPELAEEAEKLLEALAS [r1_330_TrROS_Hall] | 2.19 ± 0.11 | 2.33 ± 0.26 | 2.49 ± 0.12
3 | AKLPEGAKVVIEVRRADDGETRTITLDDDVTITITYDKDTGKVEVRAYVFDKNGKLVAEETLTLSLEELLSS [r1_380_TrROS_Hall] | 3.508 ± 0.017 | 3.1 ± 0.067 | 1.77 ± 0.027
4 | APARPPDWVLVDVPVDPTSGLITVHAGDATVTVDLPDGRPAVFYFPRSVSPSDLLAWVVGKARELAEALRAS [r1_25_TrMRF] | 2.32 ± 0.19 | 2.23 ± 0.16 | 1.9 ± 0.085
5 | APKPPVLVVEVVVLFPKEDPEVRELTVEEIAELAAEELTAHPDFKPVKVEVLSAEEHPDGYYTVTLKVTHVS [r1_484_TrMRF] | 2.4 ± 0.036 | 2.42 ± 0.1 | 2.51 ± 0.15
6 | DLDITDPALVPVPERNYPFTVVSLTGPGNGAVTVELTLDGQTVSATVDPSTGTVTFTFPGTGASAVATADPS [r1_125_TrMRF] | 1.61 ± 0.08 | 1.68 ± 0.12 | 1.69 ± 0.087
7 | DYRVVIEDLELVPAPPGTRISMPAWVDHDGVRYGEVESYVDPETGTVTLRLLVEPDGEPRELTLTLPVPPES [r1_47_TrMRF] | 0.629 ± 0.061 | 0.625 ± 0.061 | 0.545 ± 0.034
8 | EEEVEELAKKLEEELRKKLRELFPEMSEEDIKIEEIEVEKTVTVEVNGEKKEIKVKVKIKMSEEVLERLKKS [r1_299_TrROS_Hall] | 2.09 ± 0.33 | 1.72 ± 0.42 | 1.98 ± 0.14
9 | KVFSVDELRELAKKGKLKELLKKNKDVTIVVEEGSPEELKELKALPEVKEIKVVPKEDEEKIKKAKLVIKVS [r1_248_TrROS_Hall] | 0.0786 ± 0.69 | – | 0.312 ± 0.17
10 | MPTIRVKIYRDGKLVRELELPAEEVEKMSEEELLEKVRELLEEEKGETYKVEVEIDGKKFTFEIKLPEKEES [r1_477_TrROS_Hall] | 4.8 ± 0.24 | – | 4.33 ± 0.39
11 | SAGGMLTPEEIERLARELEEAIRRGDRERAEELLEKLEELLKQAEEEGDEELVERLKKLLERAKKALESAGG [r13_137_TrROS_Hall] | 2.99 ± 0.19 | – | 4.85 ± 0.55
12 | SAGGSAGGSAGEIDKIKVEVEFEFPVRVKVGDKEYEFLVKVKYTIGPDGKIEVKSIELFPSAGGSAGGSAGG [r11_95_TrMRF] | 4.76 ± 0.38 | – | 3.69 ± 0.24
13 | SAGGSAGGSAGGSFSVSVSYDPSTGNIVIRIDLPDGSTITITINPATGEISVSSSSSSSSAGGSAGGSAGGS [r10_127_TrMRF] | 3.83 ± 0.25 | – | 4.13 ± 0.28
14 | SAGGSMKTYKLESEEEIEKLIKELSPEKYIVGVKGNPDGTPVVYIFPKSEPEKLKKLGVKEIIPVKSAGGSA [r2_351_JUSTAS] | -0.109 ± 0.57 | – | -0.442 ± 0.46
15 | SAGKEIKIRIEVTRKVKNPETGEEVEEKEVVEITLSEEELKKGKSLEELAKELASKYPGAKVKIVEIESAGG [r19_110_TrROS_Hall] | 3.08 ± 0.49 | – | 4.43 ± 0.48
16 | SAGMTVEVEIELPPGMTEEERLEEVKALVEELARALLPPGWKVTVKEIEVEEKDGKLVVKVKIEIEPEESAG [r5_146_TrROS_Hall] | 2.99 ± 0.22 | – | 3.96 ± 0.28
17 | SAMTTLEKEGDVTITRTKLPDGTVVVTTEVPESRPLAELTTETITIYPDGTVTTTSQTLTLDPATGRLGSAG [r14_724_JUSTAS] | – | -0.567 ± 0.23 | -0.146 ± 0.075
18 | SARPLTIMNPDGMMYRLDPDEGEIEFQNASDGEELKIKVKPKGNGVEIDIEFNGQPHEHKIPKGDWIMIPSA [r9_239_TrROS] | – | 0.157 ± 0.33 | 0.662 ± 0.088
19 | SASLENGGVKTVEDTEYDPATNTVTFKKVTTYYGDEVLSTSTATVPLPPKPLPPPPVVERDPTNPRYLESAG [r14_571_JUSTAS] | – | < -1 | -0.368 ± 0.91
20 | SDDLSTTVTVTTPGGPTLTLTFPSNASVSTSPIDENSIVITFPGYEAVVEIAPGGKPRLKEVSEKEPVDSSA [r9_773_JUSTAS] | – | < -1 | -0.534 ± 0.2
21 | SDTVHIPIDPNDPDEIKDLIKNLPPGWTVHIWWPDKNGEWPVVTIKVKPPPPPPIPPEDLPEEQRKEMKKSA [r9_1103_TrROS] | 0.718 ± 0.11 | – | 0.398 ± 0.24
22 | SEALILDPNVETVSPVFYLLLSPEEAEERARELREELRAELEAAGLPLPEDVVIEVVPAESEEELRALLESA [r9_204_JUSTAS] | – | 0.00109 ± 0.18 | 0.5 ± 0.049
23 | SGPDVPLTPEEVAARIKAELLEKHPIGEVTPVELREFPELGVVEVRLRINVKGPPGETREIDVRLSRERLSA [r9_1002_JUSTAS] | – | 0.0428 ± 0.21 | 0.694 ± 0.13
24 | SGSMTPLTVEREVDITVVETRFLPNGGEVKKRRVTVTTTVTLPGGVPVSTQTTTIESPDLSEEEILERLSSA [r9_371_JUSTAS] | – | -0.752 ± 0.15 | 0.357 ± 0.051
25 | SIEELAKKFPNVTVTVEKTEDGEVKITITVKTSEEQKKELQEKLKELAKKLAEELDLKVEIEIKVLPAPPSA [r9_1099_TrROS_Hall] | 3.7 ± 0.38 | – | 3.86 ± 0.26
26 | SKKWKVDLDIQEDPDNGTVIGMVRVESEDGEKRPPPEEIARELAEKLREKGYKVEAEPHPGWFMITVKPPSA [r9_510_TrROS] | – | 0.153 ± 0.48 | 0.371 ± 0.24
27 | SMPKVVKTVKITKSEAKEFLEKLDIGPDKSVTILETDPNGKSSLHTIGPNKILSSEPVDTLPNTWTIEISSA [r9_849_JUSTAS] | – | -0.416 ± 0.35 | -0.0776 ± 0.13
28 | SMPVTFTMKTPENRKKLEEAIKEIEEEYPIKVEEVEKDPKGTYTYKVEMDPEIIEKVKKKLEEAGNVTLESA [r9_472_JUSTAS] | – | -0.822 ± 0.97 | -0.343 ± 0.23
29 | SMVKAKVEVNPETNAAVVEFELPELKVIALRVFDENNEVHTLVEVEIPPGPRVPLAEIPLKPNEELVLPLSA [r9_1172_TrMRF] | – | -0.685 ± 0.76 | 0.0917 ± 0.26
30 | SSPGLVEVTIPLKIVLEPLAPDGTPAPRPVATVPIKTAASSEDPSAIEQAKEDVIKELKPEFPDAKFVVESA [r9_1112_JUSTAS] | – | < -1 | 0.223 ± 0.065
